Measured values: patent US20220010008A1
Where “and” joins values, the source holds several entries; their conditions need not be identical. Identical values can stand only once. Blank lines part the entries; values can stand above or below the substance they belong to.

Tests used:
[1] = target: recombinant human IL-5 protein (human) (UniProt P05113); experiment: FACS, biotin-IL-5 bound to CHOK1 hIL-5Ra/CSF2RB cells with Ab 33.3333 nM
[2] = target: recombinant human IL-5 protein (human) (UniProt P05113); experiment: FACS, biotin-IL-5 bound to CHOK1 hIL-5Ra/CSF2RB cells with Ab 0.0107 nM
[3] = target: recombinant human IL-5 protein (human) (UniProt P05113); experiment: cell-based or functional assay
[4] = target: recombinant human IL-5 protein (human) (UniProt P05113); experiment: FACS, biotin-IL-5 bound to CHOK1 hIL-5Ra/CSF2RB cells with Ab 0.2667 nM
[5] = target: recombinant human IL-5 protein (human) (UniProt P05113); experiment: FACS, biotin-IL-5 bound to CHOK1 hIL-5Ra/CSF2RB cells with Ab 0.0021 nM
[6] = target: recombinant human IL-5 protein (human) (UniProt P05113); experiment: FACS, biotin-IL-5 bound to CHOK1 hIL-5Ra/CSF2RB cells with Ab 0.0533 nM
[7] = target: recombinant human IL-5 protein (human) (UniProt P05113); experiment: FACS, biotin-IL-5 bound to CHOK1 hIL-5Ra/CSF2RB cells with Ab 1.3333 nM
[8] = target: recombinant human IL-5 protein (human) (UniProt P05113); experiment: FACS, biotin-IL-5 bound to CHOK1 hIL-5Ra/CSF2RB cells with Ab 6.6667 nM
[9] = target: recombinant human IL-5 protein (human) (UniProt P05113); experiment: FACS, biotin-IL-5 bound to CHOK1 hIL-5Ra/CSF2RB cells with Ab 0.0004 nM
[10] = target: recombinant human IL-5 protein (human) (UniProt P05113); experiment: FACS blocking: biotin-IL-5 bound to CHOK1 IL-5Ra/CSF2RB cells, Ab 1.3333 nM
[11] = target: recombinant human IL-5 protein (human) (UniProt P05113); experiment: ELISA, biotin-human IL-5 on streptavidin plate, Ab 0.5333 nM
[12] = target: recombinant human IL-5 protein (human) (UniProt P05113); experiment: FACS blocking: biotin-IL-5 bound to CHOK1 IL-5Ra/CSF2RB cells, Ab 33.3333 nM
[13] = target: recombinant human IL-5 protein (human) (UniProt P05113); experiment: ELISA, biotin-human IL-5 on streptavidin plate, Ab 13.3333 nM
[14] = target: recombinant human IL-5 protein (human) (UniProt P05113); experiment: ELISA, biotin-human IL-5 on streptavidin plate, Ab 2.6667 nM
[15] = target: recombinant human IL-5 protein (human) (UniProt P05113); experiment: FACS blocking: biotin-IL-5 bound to CHOK1 IL-5Ra/CSF2RB cells, Ab 0.0107 nM
[16] = target: recombinant human IL-5 protein (human) (UniProt P05113); experiment: ELISA, biotin-human IL-5 on streptavidin plate, Ab 0.0002 nM
[17] = target: recombinant human IL-5 protein (human) (UniProt P05113); experiment: ELISA, biotin-human IL-5 on streptavidin plate, Ab 0.0213 nM
[18] = target: recombinant human IL-5 protein (human) (UniProt P05113); experiment: FACS blocking: biotin-IL-5 bound to CHOK1 IL-5Ra/CSF2RB cells, Ab 6.6667 nM
[19] = target: recombinant human IL-5 protein (human) (UniProt P05113); experiment: ELISA, biotin-human IL-5 on streptavidin plate, Ab 0.1067 nM
[20] = target: recombinant human IL-5 protein (human) (UniProt P05113); experiment: FACS blocking: biotin-IL-5 bound to CHOK1 IL-5Ra/CSF2RB cells, Ab 0.2667 nM
[21] = target: recombinant human IL-5 protein (human) (UniProt P05113); experiment: FACS blocking: biotin-IL-5 bound to CHOK1 IL-5Ra/CSF2RB cells, Ab 0.0021 nM
[22] = target: recombinant human IL-5 protein (human) (UniProt P05113); experiment: FACS blocking: biotin-IL-5 bound to CHOK1 IL-5Ra/CSF2RB cells, Ab 0.0533 nM
[23] = target: recombinant human IL-5 protein (human) (UniProt P05113); experiment: FACS blocking: biotin-IL-5 bound to CHOK1 IL-5Ra/CSF2RB cells, Ab 0.0004 nM
[24] = target: recombinant human IL-5 protein (human) (UniProt P05113); experiment: ELISA, biotin-human IL-5 on streptavidin plate, Ab 0.0043 nM
[25] = target: recombinant human IL-5 protein (human) (UniProt P05113); experiment: ELISA, biotin-human IL-5 on streptavidin plate, Ab 0.0009 nM
[26] = target: recombinant human IL-5 protein with His tag (human) (UniProt P05113); experiment: cell-based or functional assay
[27] = target: recombinant human IL-5 protein with His tag (human) (UniProt P05113); experiment: ELISA, biotin-human IL-5 on streptavidin; antibody 0.5333 nM
[28] = target: recombinant human IL-5 protein with His tag (human) (UniProt P05113); experiment: ELISA, biotin-human IL-5 on streptavidin; antibody 0.0002 nM
[29] = target: recombinant human IL-5 protein with His tag (human) (UniProt P05113); experiment: ELISA, biotin-human IL-5 on streptavidin; antibody 0.0213 nM
[30] = target: recombinant human IL-5 protein with His tag (human) (UniProt P05113); experiment: ELISA, biotin-human IL-5 on streptavidin; antibody 0.0009 nM
[31] = target: recombinant human IL-5 protein with His tag (human) (UniProt P05113); experiment: ELISA, biotin-human IL-5 on streptavidin; antibody 13.3333 nM
[32] = target: recombinant human IL-5 protein with His tag (human) (UniProt P05113); experiment: ELISA, biotin-human IL-5 on streptavidin; antibody 0.0043 nM
[33] = target: recombinant human IL-5 protein with His tag (human) (UniProt P05113); experiment: ELISA, biotin-human IL-5 on streptavidin; antibody 0.1067 nM
[34] = target: recombinant human IL-5 protein with His tag (human) (UniProt P05113); experiment: ELISA, biotin-human IL-5 on streptavidin; antibody 2.6667 nM

- Fluorescence intensity [1]: 80
- Fluorescence intensity [2]: 83
- RLU, CTLL-2 cell proliferation stimulated by IL-5, Ab conc. 0.000170667 nM [3]: 57400 RLU and 51000 RLU
- RLU, CTLL-2 cell proliferation stimulated by IL-5, Ab conc. 0.000853333 nM [3]: 58600 RLU and 53800 RLU
- RLU, CTLL-2 cell proliferation stimulated by IL-5, Ab conc. 0.004266667 nM [3]: 57900 RLU and 48200 RLU
- RLU, CTLL-2 cell proliferation stimulated by IL-5, Ab conc. 0.02133333 nM [3]: 59800 RLU and 55900 RLU
- RLU, CTLL-2 cell proliferation stimulated by IL-5, Ab conc. 0.1066667 nM [3]: 58200 RLU and 53500 RLU
- RLU, CTLL-2 cell proliferation stimulated by IL-5, Ab conc. 0.5333334 nM [3]: 56200 RLU and 50500 RLU
- RLU, CTLL-2 cell proliferation stimulated by IL-5, Ab conc. 2.666667 nM [3]: 51200 RLU and 46200 RLU
- RLU, CTLL-2 cell proliferation stimulated by IL-5, Ab conc. 13.33333 nM [3]: 45800 RLU and 46300 RLU
- RLU, CTLL-2 cell proliferation stimulated by IL-5, Ab conc. 66.66666 nM [3]: 43200 RLU and 34400 RLU
- RLU, CTLL-2 cell proliferation stimulated by IL-5, Ab conc. 3.41333E-05 nM [3]: 58600 RLU and 55000 RLU
- RLU, TF-1 cell proliferation stimulated by IL-5, Ab conc. 0.00001 nM [3]: 113000 RLU and 118000 RLU
- RLU, TF-1 cell proliferation stimulated by IL-5, Ab conc. 0.00003 nM [3]: 112000 RLU and 116000 RLU
- RLU, TF-1 cell proliferation stimulated by IL-5, Ab conc. 0.00017 nM [3]: 112000 RLU and 121000 RLU
- RLU, TF-1 cell proliferation stimulated by IL-5, Ab conc. 0.00085 nM [3]: 115000 RLU and 117000 RLU
- RLU, TF-1 cell proliferation stimulated by IL-5, Ab conc. 0.00427 nM [3]: 116000 RLU and 127000 RLU
- RLU, TF-1 cell proliferation stimulated by IL-5, Ab conc. 0.02133 nM [3]: 108000 RLU and 131000 RLU
- RLU, TF-1 cell proliferation stimulated by IL-5, Ab conc. 0.10667 nM [3]: 108000 RLU and 114000 RLU
- RLU, TF-1 cell proliferation stimulated by IL-5, Ab conc. 0.53333 nM [3]: 103000 RLU and 106000 RLU
- RLU, TF-1 cell proliferation stimulated by IL-5, Ab conc. 2.66667 nM [3]: 101000 RLU and 106000 RLU
- RLU, TF-1 cell proliferation stimulated by IL-5, Ab conc. 13.33333 nM [3]: 101000 RLU and 102000 RLU
- Fluorescence intensity [4]: 84
- Fluorescence intensity [5]: 81
- Fluorescence intensity [6]: 83
- Fluorescence intensity [7]: 83
- Fluorescence intensity [8]: 85
- Fluorescence intensity [9]: 86
Substance: mIgG control (mouse IgG) (antibody)

- Fluorescence intensity [10]: 84 MFI
- OD450 nm [11]: 0.079 OD450 nm and 0.078 OD450 nm
- Fluorescence intensity [12]: 84 MFI
- OD450 nm [13]: 0.172 OD450 nm and 0.07 OD450 nm
- OD450 nm [14]: 0.09 OD450 nm and 0.088 OD450 nm
- RLU, CTLL-2 proliferation with IL-5, Ab 0.000170667 nM [3]: 57400 RLU and 51000 RLU
- RLU, CTLL-2 proliferation with IL-5, Ab 0.000853333 nM [3]: 58600 RLU and 53800 RLU
- RLU, CTLL-2 proliferation with IL-5, Ab 0.004266667 nM [3]: 57900 RLU and 48200 RLU
- RLU, CTLL-2 proliferation with IL-5, Ab 0.02133333 nM [3]: 59800 RLU and 55900 RLU
- RLU, CTLL-2 proliferation with IL-5, Ab 0.1066667 nM [3]: 58200 RLU and 53500 RLU
- RLU, CTLL-2 proliferation with IL-5, Ab 0.5333334 nM [3]: 56200 RLU and 50500 RLU
- RLU, CTLL-2 proliferation with IL-5, Ab 2.666667 nM [3]: 51200 RLU and 46200 RLU
- RLU, CTLL-2 proliferation with IL-5, Ab 13.33333 nM [3]: 45800 RLU and 46300 RLU
- RLU, CTLL-2 proliferation with IL-5, Ab 66.66666 nM [3]: 43200 RLU and 34400 RLU
- RLU, CTLL-2 proliferation with IL-5, Ab 3.41333E-05 nM [3]: 58600 RLU and 55000 RLU
- RLU, TF-1 proliferation with IL-5, Ab 0.00001 nM [3]: 113000 RLU and 118000 RLU
- RLU, TF-1 proliferation with IL-5, Ab 0.00003 nM [3]: 112000 RLU and 116000 RLU
- RLU, TF-1 proliferation with IL-5, Ab 0.00017 nM [3]: 112000 RLU and 121000 RLU
- RLU, TF-1 proliferation with IL-5, Ab 0.00085 nM [3]: 115000 RLU and 117000 RLU
- RLU, TF-1 proliferation with IL-5, Ab 0.00427 nM [3]: 116000 RLU and 127000 RLU
- RLU, TF-1 proliferation with IL-5, Ab 0.02133 nM [3]: 108000 RLU and 131000 RLU
- RLU, TF-1 proliferation with IL-5, Ab 0.10667 nM [3]: 108000 RLU and 114000 RLU
- RLU, TF-1 proliferation with IL-5, Ab 0.53333 nM [3]: 103000 RLU and 106000 RLU
- RLU, TF-1 proliferation with IL-5, Ab 2.66667 nM [3]: 101000 RLU and 106000 RLU
- RLU, TF-1 proliferation with IL-5, Ab 13.33333 nM [3]: 101000 RLU and 102000 RLU
- Fluorescence intensity [15]: 85 MFI
- OD450 nm [16]: 0.082 OD450 nm and 0.08 OD450 nm
- OD450 nm [17]: 0.079 OD450 nm and 0.076 OD450 nm
- Fluorescence intensity [18]: 83 MFI
- OD450 nm [19]: 0.078 OD450 nm
- Fluorescence intensity [20]: 88 MFI
- Fluorescence intensity [21]: 83 MFI
- Fluorescence intensity [22]: 86 MFI
- Fluorescence intensity [23]: 88 MFI
- OD450 nm [24]: 0.074 OD450 nm and 0.077 OD450 nm
- OD450 nm [25]: 0.08 OD450 nm and 0.078 OD450 nm
Substance: hIgG control (human IgG) (antibody)

- TF1 (IC50), TF1 proliferation induced by IL-5 [26]: 10 pM
Substance: Mepolizumab (antibody)

- OD450 nm [27]: 0.08 and 0.077
- OD450 nm [28]: 0.076 and 0.075
- OD450 nm [29]: 0.074 and 0.079
- OD450 nm [30]: 0.075
- OD450 nm [31]: 0.108 and 0.115
- OD450 nm [32]: 0.078 and 0.072
- OD450 nm [33]: 0.08 and 0.079
- OD450 nm [34]: 0.079
Substance: mIgG control (antibody)
